Source: article PMC2956612 (Structure (London, England : 1993), 2010)
Ends that are not written are not given here. * marks the point of attachment. Biotin = O=C1N[C@H]2[C@H](CS[C@H]2CCCCC(=O)*)N1

T1: full length VDR/RXRα heterodimer (His-hVDR with Flag-hRXRα) (human, UniProt P11473 1-427; P19793 1-462)
T1 sequence (looked up) 1: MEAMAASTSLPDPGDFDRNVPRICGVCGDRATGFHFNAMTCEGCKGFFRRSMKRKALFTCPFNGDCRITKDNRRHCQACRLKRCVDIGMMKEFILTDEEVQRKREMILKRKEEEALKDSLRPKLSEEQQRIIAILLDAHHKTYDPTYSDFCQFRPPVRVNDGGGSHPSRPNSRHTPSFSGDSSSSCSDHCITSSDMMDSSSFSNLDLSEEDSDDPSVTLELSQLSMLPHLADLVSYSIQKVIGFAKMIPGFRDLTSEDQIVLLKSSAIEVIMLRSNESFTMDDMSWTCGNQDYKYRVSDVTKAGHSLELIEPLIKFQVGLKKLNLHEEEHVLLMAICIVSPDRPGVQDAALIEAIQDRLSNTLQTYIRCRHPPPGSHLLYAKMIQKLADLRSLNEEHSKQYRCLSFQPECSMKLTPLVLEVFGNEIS
T1 sequence (looked up) 2: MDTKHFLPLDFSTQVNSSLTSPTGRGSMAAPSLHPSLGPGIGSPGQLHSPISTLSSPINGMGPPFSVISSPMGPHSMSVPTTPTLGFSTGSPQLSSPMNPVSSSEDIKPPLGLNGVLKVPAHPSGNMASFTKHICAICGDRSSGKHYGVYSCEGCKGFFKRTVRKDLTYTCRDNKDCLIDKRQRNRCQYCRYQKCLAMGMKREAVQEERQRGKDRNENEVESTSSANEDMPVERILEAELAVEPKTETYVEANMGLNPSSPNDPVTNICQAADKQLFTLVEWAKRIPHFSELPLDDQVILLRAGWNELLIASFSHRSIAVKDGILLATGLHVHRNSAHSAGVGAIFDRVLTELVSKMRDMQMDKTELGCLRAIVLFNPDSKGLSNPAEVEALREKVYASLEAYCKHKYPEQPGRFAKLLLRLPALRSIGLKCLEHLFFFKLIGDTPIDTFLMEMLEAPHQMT


Molecular target: T1, full length VDR/RXRα heterodimer …
Assay: AlphaScreen or HTRF

Row | Binder | binding result
1 | Biotin-KGGTPPPVSSMAGNTKNHPMLMNLLKDNPAQDF [biotinylated DRIP 205-2 peptide] | binds
2 | Biotin-KGGGGSCPSSHSSLTERHKILHRLLQEGSPSDI [biotinylated SRC1-NR2 peptide] | binds
